# Results as given in patent publication US8945359B2, “Flavin-binding glucose dehydrogenase” (Ikeda Food Research Co., Ltd., priority 2011, dated 2015).
# Where two headings read alike, the source gives them in different places.
# B1: CiGLD: purified enzyme of GLD derived from the genus Ciborinia, produced in A. oryzae NS4 carrying the CiGLD-Atsig modified gene (protein, listed as Ciborinia camelliae)
# chain: MHRFLPAFVLASLAAASQDVALTYDYVIVGAGTSGLVTAHRLSELADVTVAVIEAGESNYNNANVTNPAGYGLAFGTQIDWQYQTTVQEYGGDVTKVIRAGKSIGGTSTINGMAYTRAEDVQVDAWEALGNEGWNWANMLPYYKKSQTLQVPTEAQAALGAHYDPASNGYEGPLKVGWVNAMATDDFHTILNETYAALDVPANNDVNTGKMIGYTRYPATYDRTLNMRCDAGRAYYYPIQNRTNLHLYPNTMAQRLTWKSGASTPTAEGVEVLADGETTPYTIHASSEVIISAGALGSPLVLEHSGIGNPAILEKYNISVVVDLPTVGENLQDQTNTALGFDTSSDNVTYSAVSTYLGYPSAAQMFGSDFKTVAAEILAALPSYADKVAIASGNVTKAADLLKFFKIQYELIFSATSPVPVAELLVTPVGTTYSAEFWSLLPFSRGNIHISSATPGVAATINPNYFMLDYDMISQVRSAKYIREIFATTPLSPLVGSETTPGLDSIASAATEAEWAAWVKTAYRSNFHPVATAAMMPREIGGVVDSRLKVYGTTNVRVVDASILPMQVCGHLTSTLYAMSERAADLIKEDM
# modifications: CDS (1)..(1776); sig_peptide (1)..(57)
# notes: purified enzyme of GLD derived from the genus Ciborinia, produced in A. oryzae NS4 carrying the CiGLD-Atsig modified gene
# B2: DuGLD: purified enzyme of flavin-binding GLD derived from the genus Dumontinia (Dumontinia tuberosa NBRC30254) (protein, listed as Dumontinia tuberosa)
# chain: MNHLLPAFALASLAVASPDLSLTYDYVIVGAGTSGLVIANRLSELNVTVAVIEAGDSGYNNVNVTNPAGYGLAFGTDIDWAYQSTNQKYAGNATQTLRAGKVIGGTSTINGMAYTRAEDVQIDAWAALGNDGWNWENLFPYYKKSQTLQAPTAAQAEAGATYDPSANGFDGPLKVGWLKSLANDDFHIILNDTYASLGIFANEDVNTGRMVGYNRYPVTYDETLNVRHDAGRAYYYPIANRTNLHLYPNTMAQRLTWKSGADVPTANGVEVLTNNSSIPYTISANSEVILSAGALASPLLLELSGIGNPSLLNKYNIPVVVDLPTVGENLQDQTNNGLAYTVSKDASFSGVGTLVTYPSAAQVFGSEIQNISAHVLDSLPSYAAQVSAASGNVTKAADLLEFFKIQHDLIFSTTHPVPMAEILVIPSATGFKSEYWALLPFARGNIHITSSIPGTPAAINPNYYMLDWDITSQITTAKFIRSVYATSPLSTLVGSETKPGLETLSANATEAEWSEWIKAGYRPNFHPVSTAAMMPREVGGVVDSRLKVYGTSNVRVVDASVLPMQVSGHLVSTLYAVAERAADLIKEDI
# modifications: CDS (1)..(1770); sig_peptide (1)..(57)
# B3: BotGLD: purified enzyme of GLD derived from Botrytis tulipae, produced in A. oryzae NS4 carrying the BotGLD-Atsig modified gene (protein, listed as Botrytis tulipae)
# chain: MYRLLSTFALASLAAASTDSTLTYDYIVIGAGTSGLVIANRLSELNVTVAVIEAGDSGYNNPNVTNPSGYGLSFGTDIDWAYQSTNQKYAGNTSQVLRAGKIIGGTSTINGMAYTRAEDVQIDAWAAIGNDGWNWANLFPYYKKSQTLEIPTTAQVEAGAAYDASANGFDGPLKVGWLNSLEDTSNFHTTLNDTFAGLGVPSNDDVNTGRMVGYSRYPATYDRTLNVRHDAGRAYYYPIANRTNLHLYPNTMAQRLTWTSDANTPTANGVEVLSNNSSIPYTIHANSEVILSAGALASPLLLELSGIGNPSILSKHNISVVVDLPTVGENLQDQTNTGLAYNSSGNTSFSGAGTLVAYPSAAQLFGSEVQKISAHVLQSLPSYAAQVSAASGNITKAADLLKFFKIQHDLIFSTTHPVPMAEILISPSATAFSSEYWALLPFARGSIHITSSVAGTPAAINPNYFMFDWDVTSQIATAKFIRSIYAASPLSSFVGSETKPGLNKVSANATEAEWFDWVKTAYRSNFHPVSTAAMMPREIGGVVDSRLKVYGTANVRVVDASILPMQVSGHLVSTLYAVAERAADLIKEDI
# modifications: CDS (1)..(1773); sig_peptide (1)..(57)
# notes: purified enzyme of GLD derived from Botrytis tulipae, produced in A. oryzae NS4 carrying the BotGLD-Atsig modified gene
# What was measured:
# [1] = system: Dumontinia tuberosa NBRC30254 flavin-binding glucose dehydrogenase DuGLD (A), purified, wild type, SEQ ID NO: 2 (without signal sequence SEQ ID NO: 10); assay: Inhibitive effect of 1,10-phenanthroline, DuGLD; format: biochemical; conditions: methanol only = 0%
# Method: (§1) The enzymatic activity of each of the purified GLDs (A) to (F) was measured when 1,10-phenanethroline dissolved in methanol was added such that its final concentration was 2 mM, 5 mM or 10 mM in the above method for measuring enzymatic activity. The inhibitive effect obtained when only methanol was added was defined as 0% to find the inhibitive effect of 1,10-phenanthroline at each concentration. The obtained results are shown collectively as the inhibitive effect of 1,10-phenanthroline in Table 4.
# [2] = system: Ovulinia azaleae NBRC6610 flavin-binding glucose dehydrogenase OvGLD (B), purified, wild type, SEQ ID NO: 6 (without signal sequence SEQ ID NO: 14); assay: Inhibitive effect of 1,10-phenanthroline, OvGLD; format: biochemical; conditions: methanol only = 0%
# Method: as §1
# [3] = system: Sclerotinia sclerotiorum NBRC103652 flavin-binding glucose dehydrogenase ScGLD (C), purified, wild type; assay: Inhibitive effect of 1,10-phenanthroline, ScGLD; format: biochemical; conditions: methanol only = 0%
# Method: After the column was washed with the buffer solution C2, a protein was eluted with linear gradient of a buffer solution D3 (500 mM potassium phosphate buffer solution, pH 7.0) in the buffer solution C2.
# as §1
# [4] = system: Botrytis fabae NBRC7171 flavin-binding glucose dehydrogenase BoGLD (D), purified, wild type; assay: Inhibitive effect of 1,10-phenanthroline, BoGLD; format: biochemical; conditions: methanol only = 0%
# Method: as §1
# [5] = biological target: T1, Botrytis tulipae NBRC5896 flavin-binding glucose dehydrogenase BotGLD (E), purified from A. oryzae NS4 with BotGLD-Atsig modified gene, SEQ ID NO: 4 (without signal sequence SEQ ID NO: 12) (Botrytis tulipae, UniProt A0A4Z1FFJ6); assay: Inhibitive effect of 1,10-phenanthroline, BotGLD; format: biochemical
# T1 construct: up to three extra N-terminal residues possible
# Method: as §1
# [6] = system: Ciborinia camelliae NBRC103663 flavin-binding glucose dehydrogenase CiGLD (F), purified from A. oryzae NS4 with CiGLD-Atsig modified gene, SEQ ID NO: …; assay: Inhibitive effect of 1,10-phenanthroline, CiGLD; format: biochemical; conditions: methanol only = 0%
# Method: as §1
# [7] = system: OC[C@H]1OC(O)[C@H](O)[C@@H](O)[C@@H]1O; assay: purified protein, by the assay type; conditions: other: BotGLD, D-glucose varied, Hanes-Woolf plot, DCIP/1-m-PMS, pH 6.0, 37° C.
# Method: Each solution was mixed according to the following procedures to measure the absorbance, thereby examining GLD activity.
# Then, 0.05 mL of an enzyme sample was added to the mixture to start a reaction. The amount (ΔA600) of reduction in light absorbance per minute at 600 nm along with the progress of the enzymatic reaction was measured for 5 minutes from the start of the reaction to calculate GLD activity from the straight line part according to the equation 1. At this time, in the measurement of GLD activity, the amount of an enzyme reducing 1 μmol of DCIP at 37° C. and a pH of 6.0 for one minute was defined as 1 U.
# In the above formula, 3.0 represents the amount (mL) of reaction reagent+oxygen solution, 10.8 represents the molar absorption coefficient (mM^−1 cm^−1) of DCIP at a pH of 6.0, 1.0 represents the optical path length (cm) of a cell, 0.05 represents the amount (mL) of the oxygen solution, ΔA600 blank represents a reduction in the amount of light absorbance per minute at 600 nm when the solution used to dilute the enzyme is added in place of the enzyme solution to start a reaction, and df represents a dilution ratio.
# Substrate specificity = format: biochemical; conditions: 333 mM
# Source text: As these substrates, maltose, D-galactose, D-fructose, sorbitol, lactose, sucrose, D-xylose, D-mannose and trehalose were used. When the activity to D-glucose was defined as 100%, the relative activity to each substrate was found. These relative activities are described collectively as the substrate specificity in Table 2.
# [8] = Temperature characteristics; format: biochemical
# Method: The relative activity at each temperature was calculated when the activities at 30 and 45° C. were each defined as 100%. In this case, each sample was measured twice in the same condition. An average of the measured relative activities is collectively described in Table 3.
# [9] = substrate D-fructose, D-glucose = 100%
# [10] = substrate D-galactose, D-glucose = 100%
# [11] = substrate D-glucose (defined as 100%)
# [12] = substrate D-mannose, D-glucose = 100%
# [13] = substrate D-xylose, D-glucose = 100%
# [14] = substrate lactose, D-glucose = 100%
# [15] = substrate maltose, D-glucose = 100%
# [16] = substrate sorbitol, D-glucose = 100%
# [17] = substrate sucrose, D-glucose = 100%
# [18] = substrate trehalose, D-glucose = 100%
molecule,measurement,setting,value
"c1cnc2c(c1)ccc1cccnc12 [1,10-phenanthroline]",Inhibitive effect,[1]; final concentration 2 mM,20.4%
same,Inhibitive effect,[1]; final concentration 5 mM,30.1%
same,Inhibitive effect,[1]; final concentration 10 mM,42.3%
same,Inhibitive effect,[2]; final concentration 2 mM,34.1%
same,Inhibitive effect,[2]; final concentration 5 mM,51.7%
same,Inhibitive effect,[2]; final concentration 10 mM,65.1%
same,Inhibitive effect,[3]; final concentration 2 mM,5.28%
same,Inhibitive effect,[3]; final concentration 5 mM,18.4%
same,Inhibitive effect,[3]; final concentration 10 mM,32.3%
same,Inhibitive effect,[4]; final concentration 2 mM,10.4%
same,Inhibitive effect,[4]; final concentration 5 mM,15.9%
same,Inhibitive effect,[4]; final concentration 10 mM,28.5%
same,inhibition at 2000 µM,"[5]; BotGLD, final concentration 2 mM, methanol only = 0%, read-out: Inhibitive effect",33.5%
same,inhibition at 5000 µM,"[5]; BotGLD, final concentration 5 mM, methanol only = 0%",38.6%
same,inhibition at 10000 µM,"[5]; BotGLD, final concentration 10 mM, methanol only = 0%",75.4%
same,inhibition at 2000 µM,"[5]; DuGLD, OvGLD and BotGLD together, 2 mM, read-out: Inhibitive effect (summary range)",20 to 34%
same,Inhibitive effect,[6]; final concentration 2 mM,6.34%
same,Inhibitive effect,[6]; final concentration 5 mM,14.7%
same,Inhibitive effect,[6]; final concentration 10 mM,32.7%
"Botrytis tulipae NBRC5896 flavin-binding glucose dehydrogenase BotGLD (E), purified from A. oryzae NS4 with BotGLD-Atsig modified gene, SEQ ID NO: 4 (without signal sequence SEQ ID NO: 12) (Botrytis tulipae)",Km,[7],36.2 mM
B1,Relative activity,Substrate specificity; [9],0.49%
same,Relative activity,Substrate specificity; [10],10%
same,Relative activity,Substrate specificity; [11],100%
same,Relative activity,Substrate specificity; [12],23%
same,Relative activity,Substrate specificity; [13],25%
same,Relative activity,Substrate specificity; [14],0.21%
same,Relative activity,Substrate specificity; [15],6.4%
same,Relative activity,Substrate specificity; [16],0.38%
same,Relative activity,Substrate specificity; [17],0.40%
same,Relative activity,Substrate specificity; [18],20%
B2,Relative activity,Substrate specificity; [9],< 0.1%
same,Relative activity,Substrate specificity; [10],0.28%
same,Relative activity,Substrate specificity; [11],100%
same,Relative activity,Substrate specificity; [12],1.7%
same,Relative activity,Substrate specificity; [13],10%
same,Relative activity,Substrate specificity; [14],< 0.1%
same,Relative activity,Substrate specificity; [15],0.54%
same,Relative activity,Substrate specificity; [16],< 0.1%
same,Relative activity,Substrate specificity; [17],< 0.1%
same,Relative activity,Substrate specificity; [18],1.0%
same,Relative activity,"[8]; 10° C., substrate 10 mM, 100% at 30° C.",60.6%
same,Relative activity,"[8]; 10° C., substrate 10 mM, 100% at 45° C.",60.1%
same,Relative activity,"[8]; 10° C., substrate 50 mM, 100% at 30° C.",56.0%
same,Relative activity,"[8]; 10° C., substrate 50 mM, 100% at 45° C.",50.5%
same,Relative activity,"[8]; 20° C., substrate 10 mM, 100% at 30° C.",81.5%
same,Relative activity,"[8]; 20° C., substrate 10 mM, 100% at 45° C.",80.7%
same,Relative activity,"[8]; 20° C., substrate 50 mM, 100% at 30° C.",77.9%
same,Relative activity,"[8]; 20° C., substrate 50 mM, 100% at 45° C.",70.3%
same,Relative activity,"[8]; 30° C., substrate 10 mM, 100% at 30° C.",100%
same,Relative activity,"[8]; 30° C., substrate 10 mM, 100% at 45° C.",99.1%
same,Relative activity,"[8]; 30° C., substrate 50 mM, 100% at 30° C.",100%
same,Relative activity,"[8]; 30° C., substrate 50 mM, 100% at 45° C.",90.2%
same,Relative activity,"[8]; 40° C., substrate 10 mM, 100% at 30° C.",108%
same,Relative activity,"[8]; 40° C., substrate 10 mM, 100% at 45° C.",107%
same,Relative activity,"[8]; 40° C., substrate 50 mM, 100% at 30° C.",109%
same,Relative activity,"[8]; 40° C., substrate 50 mM, 100% at 45° C.",98.6%
same,Relative activity,"[8]; 45° C., substrate 10 mM, 100% at 30° C.",101%
same,Relative activity,"[8]; 45° C., substrate 10 mM, 100% at 45° C.",100%
same,Relative activity,"[8]; 45° C., substrate 50 mM, 100% at 30° C.",111%
same,Relative activity,"[8]; 45° C., substrate 50 mM, 100% at 45° C.",100%
same,Relative activity,"[8]; 50° C., substrate 10 mM, 100% at 30° C.",87.5%
same,Relative activity,"[8]; 50° C., substrate 10 mM, 100% at 45° C.",86.7%
same,Relative activity,"[8]; 50° C., substrate 50 mM, 100% at 30° C.",105%
same,Relative activity,"[8]; 50° C., substrate 50 mM, 100% at 45° C.",94.4%
B3,Relative activity,Substrate specificity; [9],< 0.1%
same,Relative activity,Substrate specificity; [10],0.76%
same,Relative activity,Substrate specificity; [11],100%
same,Relative activity,Substrate specificity; [12],8.2%
same,Relative activity,Substrate specificity; [13],20%
same,Relative activity,Substrate specificity; [14],< 0.1%
same,Relative activity,Substrate specificity; [15],1.5%
same,Relative activity,Substrate specificity; [16],< 0.1%
same,Relative activity,Substrate specificity; [17],< 0.1%
same,Relative activity,Substrate specificity; [18],10%
